{"source": "patent US20040146984", "key": {"[1]": {"system": "T1, LPXTG-containing peptide KRQLPSTGETANPFY from the streptococcal M6 protein", "T1 sequence": "KRQLPSTGETANPFY"}, "[2]": {"biological_target": "native bovine serum albumin (UniProt P02769)", "sequence (P02769 25-607)": "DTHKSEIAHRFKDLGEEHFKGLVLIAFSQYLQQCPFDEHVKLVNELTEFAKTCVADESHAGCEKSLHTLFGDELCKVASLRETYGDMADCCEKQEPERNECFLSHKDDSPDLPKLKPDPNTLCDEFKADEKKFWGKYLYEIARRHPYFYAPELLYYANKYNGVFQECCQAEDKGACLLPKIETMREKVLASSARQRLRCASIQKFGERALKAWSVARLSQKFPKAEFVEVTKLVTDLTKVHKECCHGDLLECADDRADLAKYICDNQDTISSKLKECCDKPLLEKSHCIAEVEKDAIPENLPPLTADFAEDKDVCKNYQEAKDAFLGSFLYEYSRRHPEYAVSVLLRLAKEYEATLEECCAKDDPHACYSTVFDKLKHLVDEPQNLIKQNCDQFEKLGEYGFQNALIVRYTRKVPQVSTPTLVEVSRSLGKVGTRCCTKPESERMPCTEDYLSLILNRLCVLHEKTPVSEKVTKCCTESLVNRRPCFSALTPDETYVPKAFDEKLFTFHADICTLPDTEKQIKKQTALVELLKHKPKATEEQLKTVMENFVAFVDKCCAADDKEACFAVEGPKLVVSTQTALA"}, "[3]": {"system": "peptide in which the LPSTGE was randomly placed (TEPGSL)"}, "[4]": {"system": "peptide in which the LPSTGE was reversed (EGTSPL)"}}}
{"substance": "LPXTGase", "values": [{"measurement": "% of control (Calcium chloride 20 mM)", "setting": "[1]", "value": "23 % of control"}, {"measurement": "% of control (Control, no salt)", "setting": "[1]", "value": "100 % of control"}, {"measurement": "% of control (EDTA 20 mM)", "setting": "[1]", "value": "5.2 % of control"}, {"measurement": "% of control (Hydroxylamine-HCl 100 mM)", "setting": "[1]", "value": "27 % of control"}, {"measurement": "% of control (Magnesium chloride 20 mM)", "setting": "[1]", "value": "20 % of control"}, {"measurement": "% of control (Potassium chloride 100 mM)", "setting": "[1]", "value": "20 % of control"}, {"measurement": "% of control (Putrescene chloride 20 mM)", "setting": "[1]", "value": "21 % of control"}, {"measurement": "% of control (Sodium chloride 100 mM)", "setting": "[1]", "value": "16 % of control"}, {"measurement": "% of control (Sodium phosphate 20 mM)", "setting": "[1]", "value": "49 % of control"}, {"measurement": "% of control (Sodium sulfate 20 mM)", "setting": "[1]", "value": "57 % of control"}, {"measurement": "Km (Lineweaver-Burk plot of cleavage of 125I-labeled peptide, 20 to 240 µM, 2.4 µM enzyme, 30 min)", "setting": "[1]", "value": "Km of 0.26 mM"}, {"measurement": "Vmax (Lineweaver-Burk plot of cleavage of 125I-labeled peptide)", "setting": "[1]", "value": "Vmax of 67 µM in 30 min when 2.4 µM of enzyme was used in the assay"}, {"measurement": "cleavage of bead-bound peptide, N-terminal sequencing of the fragment", "setting": "[1]", "value": "the enzyme cleaved after glutamic acid within the LPSTGE (SEQ ID NO:3) sequence releasing the TANPFY (SEQ ID NO:6) peptide fragment"}, {"measurement": "cleavage of free peptide, sequencing of the fragments", "setting": "[1]", "value": "the enzyme cleaved the free KRQLPSTGETANPFY (SEQ ID NO:2) peptide at two sites, after the serine and the glutamic acid of LPSTGE"}, {"measurement": "peptide cleaved, cpm (Calcium chloride 20 mM)", "setting": "[1]", "value": 9710, "unit": "cpm"}, {"measurement": "peptide cleaved, cpm (Control, no salt)", "setting": "[1]", "value": 41500, "unit": "cpm"}, {"measurement": "peptide cleaved, cpm (EDTA 20 mM)", "setting": "[1]", "value": 2150, "unit": "cpm"}, {"measurement": "peptide cleaved, cpm (Hydroxylamine-HCl 100 mM)", "setting": "[1]", "value": 11200, "unit": "cpm"}, {"measurement": "peptide cleaved, cpm (Magnesium chloride 20 mM)", "setting": "[1]", "value": 8620, "unit": "cpm"}, {"measurement": "peptide cleaved, cpm (Potassium chloride 100 mM)", "setting": "[1]", "value": 8610, "unit": "cpm"}, {"measurement": "peptide cleaved, cpm (Putrescene chloride 20 mM)", "setting": "[1]", "value": 8710, "unit": "cpm"}, {"measurement": "peptide cleaved, cpm (Sodium chloride 100 mM)", "setting": "[1]", "value": 6720, "unit": "cpm"}, {"measurement": "peptide cleaved, cpm (Sodium phosphate 20 mM)", "setting": "[1]", "value": 20600, "unit": "cpm"}, {"measurement": "peptide cleaved, cpm (Sodium sulfate 20 mM)", "setting": "[1]", "value": 23500, "unit": "cpm"}, {"measurement": "cleavage (SDS-PAGE for degradation)", "setting": "[2]", "value": "No cleavage was observed when native bovine serum albumin was reacted in a similar way"}, {"measurement": "cleavage of bead-bound or free peptide", "setting": "[3]", "value": "no cleavage was observed (not shown)"}, {"measurement": "cleavage of bead-bound or free peptide", "setting": "[4]", "value": "no cleavage was observed (not shown)"}]}
